Assay results from the supplement of paper PMC10567573.

B1: CPOX (parent)
chain: HAPTIHFNYRYFEVEEADGNKQWW
B2: DFFB (parent)
chain: KLNCDPSRIYKPQTRLKRKQPVRK

Variants of: B1
Test: protein stability index of a GFP-peptide fusion (GPS, HEK-293T) (PSI 1-6); higher = more stable
Details: c terminus: a fixed tail appended
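Further: lentivirally expressed fusions sorted by FACS into six bins by GFP to DsRed ratio, PSI derived from sequencing read proportions per bin multiplied by bin number.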

Variant	protein stability index
HAPTIHFNYRYFEVEEADGNAQWW [K21A]	2.44
HAPTIHFNYRYFEVEEADGNEQWW [K21E]	2.53
HAPTIHFNYRYFEVEEADGNVQWW [K21V]	2.1
HAPTIHFNYRYFEVEEADGNSQWW [K21S]	1.99
HAPTIHFNYRYFEVEEADGNCQWW [K21C]	2.45
HAPTIHFNYRYFEVEEADGNPQWW [K21P]	2.25
HAPTIHFNYRYFEVEEADGNMQWW [K21M]	1.54
HAPTIHFNYRYFEVEEADGNFQWW [K21F]	1.6
HAPTIHFNYRYFEVEEADGNKQWN [W24N]	3.06
HAPTIHFNYRYFEVEEADGNKQWA [W24A]	3.17
HAPTIHFNYRYFEVEEADGNKQWP [W24P]	2.91
HAPTIHFNYRYFEVEEADGNKQWR [W24R]	3.11
HAPTIHFNYRYFEVEEADGNKQWK [W24K]	3.24
HAPTIHFNYRYFEVEEADGNKQWM [W24M]	3.4
HAPTIHFNYRYFEVEEADGNKQWH [W24H]	3.03
HAPTIHFNYRYFKVEEADGNKQWW [E13K]	1.8
HAPTIHFNYRYFRVEEADGNKQWW [E13R]	1.56
HAPTIHFNYRYFPVEEADGNKQWW [E13P]	1.86
HAPTIHFNYRYFAVEEADGNKQWW [E13A]	1.97
HAPTIHFNYRYFSVEEADGNKQWW [E13S]	1.45
HAPTIHFNYRYFNVEEADGNKQWW [E13N]	2.15
HAPTIHFNYRYFYVEEADGNKQWW [E13Y]	1.7
HAPTIHFNYRYFVVEEADGNKQWW [E13V]	2.52
HAPTIHLNYRYFEVEEADGNKQWW [F7L]	2.86
HAPTIHWNYRYFEVEEADGNKQWW [F7W]	2.96
HAPTIHPNYRYFEVEEADGNKQWW [F7P]	2.8

Variant	protein stability index
HAPTIHTNYRYFEVEEADGNKQWW [F7T]	3.15
HAPTIHNNYRYFEVEEADGNKQWW [F7N]	2.71
HAPTIHYNYRYFEVEEADGNKQWW [F7Y]	2.48
HAPWIHFNYRYFEVEEADGNKQWW [T4W]	2.15
HAPIIHFNYRYFEVEEADGNKQWW [T4I]	2.21
HAPEIHFNYRYFEVEEADGNKQWW [T4E]	2.29
HAPHIHFNYRYFEVEEADGNKQWW [T4H]	2.62
HAPTIHFNYRYFEVTEADGNKQWW [E15T]	1.81
HAPTIHFNYRYFEVCEADGNKQWW [E15C]	2.15
HAPTIHFNYRYFEWEEADGNKQWW [V14W]	2.35
HAPTIHFNYRYFELEEADGNKQWW [V14L]	2.37
HAPTIHFNYRYFENEEADGNKQWW [V14N]	2.42
HAPTIHFNYRYFEREEADGNKQWW [V14R]	2.29
HAPTIHFNYRYFEEEEADGNKQWW [V14E]	3.62
HAPTIHFNYRYFEPEEADGNKQWW [V14P]	2.29
HAPTIHFNYRCFEVEEADGNKQWW [Y11C]	1.99
HAPTIHFNYRHFEVEEADGNKQWW [Y11H]	3.13
HAPTIHFNYRRFEVEEADGNKQWW [Y11R]	2.36
HAPTIHFNYRPFEVEEADGNKQWW [Y11P]	2.98
HAPTIHFNYRLFEVEEADGNKQWW [Y11L]	2.39
HAPTIHFNYRVFEVEEADGNKQWW [Y11V]	2.12
HAPTIHFNYRYFEVESADGNKQWW [E16S]	2.24
HAPTIHFNYRYFEVELADGNKQWW [E16L]	1.44
HAPTIHFNYRYFEVEGADGNKQWW [E16G]	2.21
HAPTIHFNYRYFEVETADGNKQWW [E16T]	2.53
HAPTIHFNYRYFEVEIADGNKQWW [E16I]	2.29

Variant	protein stability index
HAPTIHFNYRYHEVEEADGNKQWW [F12H]	3.01
HAPTIHFNYRYAEVEEADGNKQWW [F12A]	2.49
HAPTIHFNYRYLEVEEADGNKQWW [F12L]	2.64
HAPTIHFNYRYNEVEEADGNKQWW [F12N]	3.05
HAPTIHFNYRYREVEEADGNKQWW [F12R]	2.96
HAPTIHFNYRYSEVEEADGNKQWW [F12S]	2.87
HAPTIHFNYRYYEVEEADGNKQWW [F12Y]	2.84
HAPTIHFNYRYFEVEEADGNKNWW [Q22N]	2.19
HAPTIHFNYRYFEVEEADGNKYWW [Q22Y]	2.5
HAPTIHFNYRYFEVEEADGNKFWW [Q22F]	1.67
HAPTIHFNYRYFEVEEADGNKRWW [Q22R]	2.5
HAPTIHFNYRYFEVEEADGNKMWW [Q22M]	1.76
HAPTIHFNYRYFEVEEADGNKCWW [Q22C]	1.96
HAPTIHFNYRYFEVEEADGNKDWW [Q22D]	3.12
HAPTIHFNYRYFEVEEADGNKAWW [Q22A]	1.98
HAPTIHFNYRYFEVEEAVGNKQWW [D18V]	1.68
HAPTIHFNYRYFEVEEAAGNKQWW [D18A]	2.6
HAPTIHFNYRYFEVEEALGNKQWW [D18L]	1.3
HAPTIHFNYRYFEVEEATGNKQWW [D18T]	1.89
HAPTIHFNYRYFEVEEAIGNKQWW [D18I]	1.5
HAPTIHFNYRYFEVEEANGNKQWW [D18N]	2.32
HAPTIHFNYRYFEVEEAYGNKQWW [D18Y]	1.07
HAPTIHFNYRYFEVEEASGNKQWW [D18S]	2
HAPTIHFNYRYFEVEEAFGNKQWW [D18F]	3.24
HANTIHFNYRYFEVEEADGNKQWW [P3N]	2.09
HAWTIHFNYRYFEVEEADGNKQWW [P3W]	1.17

Variant	protein stability index
HATTIHFNYRYFEVEEADGNKQWW [P3T]	2.38
HAGTIHFNYRYFEVEEADGNKQWW [P3G]	2.85
HACTIHFNYRYFEVEEADGNKQWW [P3C]	1.62
HAATIHFNYRYFEVEEADGNKQWW [P3A]	1.97
HAYTIHFNYRYFEVEEADGNKQWW [P3Y]	2.39
HAETIHFNYRYFEVEEADGNKQWW [P3E]	1.99
HAPTIHFNYRYFEVEEADTNKQWW [G19T]	2.26
HAPTIHFNYRYFEVEEADHNKQWW [G19H]	1.8
HAPTIHFNYRYFEVEEADANKQWW [G19A]	2.33
HAPTIHFNYRYFEVEEADLNKQWW [G19L]	1.87
HAPTIHFNYRYFEVEEADCNKQWW [G19C]	1.97
HAPTIHFNYFYFEVEEADGNKQWW [R10F]	1.77
HAPTIHFNYEYFEVEEADGNKQWW [R10E]	2.7
HAPTIHFNYIYFEVEEADGNKQWW [R10I]	2.87
HAPTIHFNYPYFEVEEADGNKQWW [R10P]	2.38
HAPTIHFNYVYFEVEEADGNKQWW [R10V]	2.48
HAPTIHFNYRYFEVEETDGNKQWW [A17T]	2.35
HAPTIHFNYRYFEVEEGDGNKQWW [A17G]	2.57
HAPTIHFNYRYFEVEEPDGNKQWW [A17P]	2.05
HAPTIHFNYRYFEVEEHDGNKQWW [A17H]	1.89
HAPTIHFNYRYFEVEEEDGNKQWW [A17E]	3.01
HAPTIHFNYRYFEVEECDGNKQWW [A17C]	2.08
HAPTIHFNYRYFEVEEDDGNKQWW [A17D]	2.6
HAPTIHFNYRYFEVEELDGNKQWW [A17L]	1.96
HAPTIHFNYRYFEVEEADGPKQWW [N20P]	1.98
HAPTIHFNYRYFEVEEADGWKQWW [N20W]	1.88

Variant	protein stability index
HAPTIHFNYRYFEVEEADGHKQWW [N20H]	2.38
HAPTIHFNYRYFEVEEADGDKQWW [N20D]	2.12
HAPTIHFNYRYFEVEEADGCKQWW [N20C]	1.87
HAPTIHFNYRYFEVEEADGEKQWW [N20E]	2.75
HAPTIHFNYRYFEVEEADGVKQWW [N20V]	2.27
HAPTIHFNYRYFEVEEADGAKQWW [N20A]	1.76
HAPTIEFNYRYFEVEEADGNKQWW [H6E]	2.66
HAPTIRFNYRYFEVEEADGNKQWW [H6R]	2.04
HAPTIWFNYRYFEVEEADGNKQWW [H6W]	1.59
HAPTIPFNYRYFEVEEADGNKQWW [H6P]	1.89
HAPTINFNYRYFEVEEADGNKQWW [H6N]	2.5
HAPTIMFNYRYFEVEEADGNKQWW [H6M]	1.94
HAPTIHFNYRYFEVEEADGNKQYW [W23Y]	2.33
HAPTIHFNYRYFEVEEADGNKQTW [W23T]	2.63
HAPTIHFNYRYFEVEEADGNKQAW [W23A]	3.94
HAPTIHFNYRYFEVEEADGNKQSW [W23S]	3.19
HAPTIHFNYRYFEVEEADGNKQVW [W23V]	2.36
HAPTIHFNYRYFEVEEADGNKQKW [W23K]	3.35
HAPTIHFIYRYFEVEEADGNKQWW [N8I]	1.26
HAPTIHFYYRYFEVEEADGNKQWW [N8Y]	2.02
HAPTIHFKYRYFEVEEADGNKQWW [N8K]	1.67
HAPTIHFSYRYFEVEEADGNKQWW [N8S]	3.03
HAPTIHFMYRYFEVEEADGNKQWW [N8M]	2.53
HAPTIHFAYRYFEVEEADGNKQWW [N8A]	2.22
HAPTIHFDYRYFEVEEADGNKQWW [N8D]	2.75
HAPTIHFNARYFEVEEADGNKQWW [Y9A]	2.33

Variant	protein stability index
HAPTIHFNPRYFEVEEADGNKQWW [Y9P]	3.1
HAPTIHFNQRYFEVEEADGNKQWW [Y9Q]	2.82
HAPTIHFNERYFEVEEADGNKQWW [Y9E]	3.5
HAPTIHFNMRYFEVEEADGNKQWW [Y9M]	2.6
HAPTIHFNDRYFEVEEADGNKQWW [Y9D]	3.46
HAPTSHFNYRYFEVEEADGNKQWW [I5S]	2.65
HAPTFHFNYRYFEVEEADGNKQWW [I5F]	2.44
HAPTQHFNYRYFEVEEADGNKQWW [I5Q]	2.7
HAPTEHFNYRYFEVEEADGNKQWW [I5E]	3.55
HAPTHHFNYRYFEVEEADGNKQWW [I5H]	2.82
HNPTIHFNYRYFEVEEADGNKQWW [A2N]	2.46
HLPTIHFNYRYFEVEEADGNKQWW [A2L]	2.11
HHPTIHFNYRYFEVEEADGNKQWW [A2H]	2.44
HMPTIHFNYRYFEVEEADGNKQWW [A2M]	2.16
HTPTIHFNYRYFEVEEADGNKQWW [A2T]	2.5
HPPTIHFNYRYFEVEEADGNKQWW [A2P]	2.34
HYPTIHFNYRYFEVEEADGNKQWW [A2Y]	2.33
HEPTIHFNYRYFEVEEADGNKQWW [A2E]	3.45
RAPTIHFNYRYFEVEEADGNKQWW [H1R]	3.24
WAPTIHFNYRYFEVEEADGNKQWW [H1W]	2.62
CAPTIHFNYRYFEVEEADGNKQWW [H1C]	2.15
IAPTIHFNYRYFEVEEADGNKQWW [H1I]	2.05
PAPTIHFNYRYFEVEEADGNKQWW [H1P]	2.62

Variants of: B2
Test: as above
Details: c terminus: a fixed tail appended

Variant	protein stability index
KLNCDPSRIYKPQTRLKRKQPVYK [R23Y]	3.48
KLNCDPSRIYKPQTRLKRKQPVLK [R23L]	2.81
KLNCDPSRIYKPQTRLKRKQPVWK [R23W]	2.59
KLNCDPSRIYKPQTRLKRKQPVPK [R23P]	3.84
KLNCDPSRIYKPQTRLKRKQPVTK [R23T]	3.77
KLNCDPSRIYKPQTRLKRKQPVAK [R23A]	3.39
KLNCDPSRIYKPQTRLKRKQPVCK [R23C]	3.21
KLNCDPSRIYKPQTRLKRKQPVIK [R23I]	3.53
KLNCDPSRIYKPQTRLKRKQPVSK [R23S]	3.49
KLNCDPSRIYKPQTRLKRKQPVQK [R23Q]	3.9
KLNCDPSRIYKPQTRLKRKQPVVK [R23V]	3.25
KLNCDPSRIYKPQTRLKRKQPVMK [R23M]	3.1
KLNCDPSRIYKPQTRLKRKQPVGK [R23G]	3.35
KLNCDPSRIYKPQTRLKRKQPVHK [R23H]	3.43
KLNCDPSRIYKPQTRLKRKQPVEK [R23E]	3.34
KLNCDPSRIYKPQTRLKRKQPVKK [R23K]	3.01
KLNCDPSRIYKPQTRLKRKQPVDK [R23D]	3.83
KLNCDPSRIYKPQTRLKRKQPVRF [K24F]	2.7

Variant	protein stability index
KLNCDPSRIYKPQTRLKRKQPVRQ [K24Q]	3.18
KLNCDPSRIYKPQTRLKRKQPVRL [K24L]	2.87
KLNCDPSRIYKPQTRLKRKQPVRD [K24D]	3.56
KLNCDPSRIYKPQTRLKRKQPVRT [K24T]	4.04
KLNCDPSRIYKPQTRLKRKQPVRN [K24N]	3.44
KLNCDPSRIYKPQTRLKRKQPVRV [K24V]	2.49
KLNCDPSRIYKPQTRLKRKQPVRE [K24E]	3.99
KLNCDPSRIYKPQTRLKRKQPVRM [K24M]	3.11
KLNCDPSRIYKPQTRLKRKQPVRP [K24P]	3.32
KLNCDPSRIYKPQTRLKRKQPVRA [K24A]	4.04
KLNCDPSRIYKPQTRLKRKQPVRC [K24C]	2.96
KLNCDPSRIYKPQTRLKRKQPVRI [K24I]	3.03
KLNCDPSRIYKPQTRLKRKQPVRG [K24G]	3.23
KLNCDPSRIYKPQTRLKRKQPVRR [K24R]	3.96
KLNCDPSRIYKPQTRLKRKQPVRH [K24H]	3.15
KLNCDPSRIYKPQTRLKRKQPVRS [K24S]	4.02
KLNCDPSRIYKPQTRLKRKQPVRY [K24Y]	3.11
